± gives the half width of the 95% confidence interval.
Key:
[1] = folding stability dG unfold (combined trypsin and chymotrypsin); higher = more stable
Summary of the method: (§1)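 Mini-proteins designed to be under 80 residues and free of cysteine were carried in a PA-tagged cDNA display construct and digested with trypsin and with chymotrypsin. Each protease was applied at 11 threefold-diluted concentrations, alongside a no-protease condition, before sequencing. K50 came from Bayesian fitting of the sequencing counts, and unfolding free energy was obtained by comparing it with a sequence-predicted unfolded-state K50 and a shared folded-state K50, for each protease separately or for both together. Designs were retained only if their AlphaFold2 dimer inter-PAE exceeded 15.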

[2] = folding stability dG unfold from chymotrypsin proteolysis; higher = more stable
Summary of the method: as §1

[3] = folding stability dG unfold from trypsin proteolysis; higher = more stable
Summary of the method: as §1

Sequence	folding stability dG unfold [1] [kcal/mol]	folding stability dG unfold [2] [kcal/mol]	folding stability dG unfold [3] [kcal/mol]
SAGGRRPVTAEEAADRLMKELGIPGLKNIKDVTMEYEVYDPDGKPWSRVDITIKIKMPPEQRDRLKKLSAGG [r13_552_TrROS]	0.51 ± 0.16	0.436 ± 0.19	0.607 ± 0.12
SAGGSAGGSAGGWFYKRDPDGKPLEPRPVVVIKISYEISYDADGGWKLKLNISIYPVYWISAGGSAGGSAGG [r7_572_TrROS]	4.77 ± 0.31	5.01 ± 0.15	3.58 ± 0.15
SAGGSAMITLEVEVPPGNAEEAAEAVAEELAEKLGVEVTIEKVEVEYDPVTNLTRVPVEIKINPPLSAGGSA [r15_70_JUSTAS]	0.618 ± 0.24	0.557 ± 0.11	1.18 ± 0.071
SAGGSAGSMSEIEGLTVLEEREEPDPATGTTVPTLVVRDPEKGELYVITATTDPATGKPTYSFDLVSAGGSA [r15_170_JUSTAS]	0.595 ± 0.047	0.0106 ± 0.072	0.871 ± 0.03
SAGGSAGGSAGKTYTLTITTENGKTITLPKDVEVVYDEKTGYLYIKNKKTNKVIKVKLKDSAGGSAGGSAGG [r17_432_TrROS_Hall]	2.19 ± 0.079	2.21 ± 0.059	2.13 ± 0.051
SAGGYVTSPMSPEIEAKAKEAGKTIDEAKELVIPVNDGGKFRTVKVTFYPETGTVAFYYEDTGEWSNLLSAG [r5_545_JUSTAS]	0.957 ± 0.22	1.05 ± 0.19	0.499 ± 0.12
SAGKVKVEKLEDGTVIVEAEIKDPETDEYIKIFDLVTFNPETGYALVPRLVIKGDKPFTFPVLVKLPKSAGG [r19_289_TrMRF]	0.671 ± 0.12	0.931 ± 0.11	0.0636 ± 0.067
SAGGIKEVKFDPKTNTLTVYLPEVGATITYNPTAGKLEIYSKDGKPKTIDVPTPSEMKKAILKAYKELKSAG [r5_467_TrMRF]	2.69 ± 0.21	2.84 ± 0.069	1.82 ± 0.064
SIITINFHPGMFHISIYKDGGEKTIPMPWSEIKELLKKGVDKVEIHSPDPGFMNEFQKLVQKEGIPIEIHSA [r9_810_TrROS]	1.9 ± 0.25	2.12 ± 0.06	1.42 ± 0.095
SAGGSEPEPLRVSEITDIKESVLPNGTLKATVTLKLPEKDEEVEIEVEASSEEEIEEAIEEIVKLESAGGSA [r2_248_JUSTAS]	0.482 ± 0.21	0.0425 ± 0.35	0.678 ± 0.089
SAGGSAGGSMKTYTLPNGLRVQLVRVDKKTKTITLKVFDKNGELVEEIEIKVDEPVELLVVYPSAGGSAGGS [r12_960_TrROS_Hall]	2.45 ± 0.15	2.69 ± 0.05	2.09 ± 0.061
SAGGGMMVLKVSQPVLLLSTVTLPNGFPKFLPVSPLSLETTVTFTGSDQDAEELAAELKAQGATVTEESAGG [r13_452_JUSTAS]	0.715 ± 0.078	0.719 ± 0.12	0.585 ± 0.025
SAGGSAGGSAGKPKTKTITLTLLVYDEETGEFYRIEARIEINEDGSITIEEKIEKLPLKPSAGGSAGGSAGG [r11_941_TrROS_Hall]	3.91 ± 0.12	4.17 ± 0.1	2.81 ± 0.13
SAGGSAMESFLGAAKEVLSQMEPGEIVLLPLERPDDKPLLVLLDPTTRRLVVFYPDGGYEEFDFPESAGGSA [r15_977_TrMRF]	2.86 ± 0.079	2.9 ± 0.064	2.74 ± 0.046
SAGGSAGGPKKIKITNIEYPNGYWRVKISLPNGKEVEYPMDSPDDALDWAEDDGIKEVEIEKYNSAGGSAGG [r6_601_TrROS]	0.159 ± 0.18	0.358 ± 0.28	-0.429 ± 0.49
SAPPYYIVIKFKMELPPPTPEDAKEYDPDGEVRRTTVEMTFVIPIPPEDLEDLKDFMQSLGIEEIEIFKSAG [r14_509_TrROS]	2.56 ± 0.15	2.75 ± 0.032	2.05 ± 0.087
SMTLPANAKAKVTVLVLFYDPETGEATLVKVDYTATFKPDDKGNLVVEVEPSKIEFIGPISLEEAKKIAGSA [r9_423_TrMRF]	2.55 ± 0.21	2.11 ± 0.058	2.57 ± 0.15
SAGGSAGGSKPGEVYEVKVKIKDKETGKYYEVKVKVYRLEDGTLLIEVDGKIFEVPVKDIEIESAGGSAGGS [r12_790_TrROS_Hall]	3.99 ± 0.11	4.2 ± 0.082	3.25 ± 0.2
SAGGGFDIITITFGGIPITLTLEGEEEVKKFIEELPKLGIKTEILEKEKKIGPDGKPYVEVKVKAIPSAGGS [r8_336_JUSTAS]	1.19 ± 0.16	1.43 ± 0.14	0.299 ± 0.13
SAGGSAGGIKELLEALGFEVVDVEPTDNKFMIMIRNPEEGRVVVIEIEWDGPPKIEIHPMPPNASAGGSAGG [r6_195_TrROS]	2.31 ± 0.13	2.11 ± 0.04	2.38 ± 0.065
SADYVLYLVTLKVRRKVGDKEYELEVPLLILAPEDELDESEIEAIAREAAAELGAEVEEVKIERLPLNASAG [r14_278_TrMRF]	4.66 ± 0.059	4.88 ± 0.086	3.94 ± 0.11

Source: the supplement of paper PMC12764529
